Laboratory results as given in US20090099029.

B1: IKBKB (protein)
chain: MSWSPSLTTQTCGAWEMKERLGTGGFGNVIRWHNQETGEQIAIKQCRQELSPRNRERWCLEIQIMRRLTHPNVVAARDVPEGMQNLAPNDLPLLAMEYCQGGDLRKYLNQFENCCGLREGAILTLLSDIASALRYLHENRIIHRDLKPENIVLQQGEQRLIHKIIDLGYAKELDQGSLCTSFVGTLQYLAPELLEQQKYTVTVDYWSFGTLAFECITGFRPFLPNWQPVQWHSKVRQKSEVDIVVSEDLNGTVKFSSSLPYPNNLNSVLAERLEKWLQLMLMWHPRQRGTDPTYGPNGCFKALDDILNLKLVHILNMVTGTIHTYPVTEDESLQSLKARIQQDTGIPEEDQELLQEAGLALIPDKPATQCISDGKLNEGHTLDMDLVFLFDNSKITYETQISPRPQPESVSCILQEPKRNLAFFQLRKVWGQVWHSIQTLKEDCNRLQQGQRAAMMNLLRNNSCLSKMKNSMASMSQQLKAKLDFFKTSIQIDLEKYSEQTEFGITSDKLLLAWREMEQAVELCGRENEVKLLVERMMALQTDIVDLQRSPMGRKQGGTLDDLEEQARELYRRLREKPRDQRTEGDSQEMVRLLLQAIQSFEKKVRVIYTQLSKTVVCKQKALELLPKVEEVVSLMNEDEKTVVRLQEKRQKELWNLLKIACSKVRGPVSGSPDSMNASRLSQPGQLMSQPSTASNSLPEPAKKSEELVAEAHNLCTLLENAIQDTVREQDQSFTALDWSWLQTEEEEHSCLEQAS
B2: GRK6 (protein)
chain: MELENIVANTVLLKAREGGGGNRKGKSKKWRQMLQFPHISQCEELRLSLERDYHSLCERQPIGRLLFREFCATRPELSRCVAFLDGVAEYEVTPDDKRKACGRQLTQNFLSHTGPDLIPEVPRQLVTNCTQRLEQGPCKDLFQELTRLTHEYLSVAPFADYLDSIYFNRFLQWKWLERQPVTKNTFRQYRVLGKGGFGEVCACQVRATGKMYACKKLEKKRIKKRKGEAMALNEKQILEKVNSRFVVSLAYAYETKDALCLVLTLMNGGDLKFHIYHMGQAGFPEARAVFYAAEICCGLEDLHRERIVYRDLKPENILLDDHGHIRISDLGLAVHVPEGQTIKGRVGTVGYMAPEVVKNERYTFSPDWWALGCLLYEMIAGQSPFQQRKKKIKREEVERLVKEVPEEYSERFSPQARSLCSQLLCKDPAERLGCRGGSAREVKEHPLFKKLNFKRLGAGMLEPPFKPDPQAIYCKDVLDIEQFSTVKGVELEPTDQDFYQKFATGSVPIPWQNEMVETECFQELNVFGLDGSVPPDLDWKGQPPAPPKKGLLQRLFSRQDCCGNCSDSEEELPTRL
B3: GSK3A (protein)
chain: MSGGGPSGGGPGGSGRARTSSFAEPGGGGGGGGGGPGGSASGPGGTGGGKASVGAMGGGVGASSSGGGPGGSGGGGSGGPGAGTSFPPPGVKLGRDSGKVTTVVATLGQGPERSQEVAYTDIKVIGNGSFGVVYQARLAETRELVAIKKVLQDKRFKNRELQIMRKLDHCNIVRLRYFFYSSGEKKDELYLNLVLEYVPETVYRVARHFTKAKLTIPILYVKVYMYQLFRSLAYIHSQGVCHRDIKPQNLLVDPDTAVLKLCDFGSAKQLVRGEPNVSYICSRYYRAPELIFGATDYTSSIDVWSAGCVLAELLLGQPIFPGDSGVDQLVEIIKVLGTPTREQIREMNPNYTEFKFPQIKAHPWTKVFKSRTPPEAIALCSSLLEYTPSSRLSPLEACAHSFFDELRCLGTQLPNNRPLPPLFNFSAGELSIQPSLNAILIPPHLRSPAGTTTLTPSSQALTETPTSSDWQSTDATPTLTNSS
B4: IRAK4 (protein)
chain: MNKPITPSTYVRCLNVGLIRKLSDFIDPQEGWKKLAVAIKKPSGDDRYNQFHIRRFEALLQTGKSPTSELLFDWGTTNCTVGDLVDLLIQNEFFAPASLLLPDAVPKTANTLPSKEAITVQQKQMPFCDKDRTLMTPVQNLEQSYMPPDSSSPENKSLEVSDTRFHSFSFYELKNVTNNFDERPISVGGNKMGEGGFGVVYKGYVNNTTVAVKKLAAMVDITTEELKQQFDQEIKVMAKCQHENLVELLGFSSDGDDLCLVYVYMPNGSLLDRLSCLDGTPPLSWHMRCKIAQGAANGINFLHENHHIHRDIKSANILLDEAFTAKISDFGLARASEKFAQTVMTSRIVGTTAYMAPEALRGEITPKSDIYSFGVVLLEIITGLPAVDEHREPQLLLDIKEEIEDEEKTIEDYIDKKMNDADSTSVEAMYSVASQCLHEKKNKRPDIKKVQQLLQEMTAS
B5: GRK7 (protein)
chain: MVDMGALDNLIANTAYLQARKPSDCDSKELQRRRRSLALPGLQGCAELRQKLSLNFHSLCEQQPIGRRLFRDFLATVPTFRKAATFLEDVQNWELAEEGPTKDSALQGLVATCASAPAPGNPQPFLSQAVATKCQAATTEEERVAAVTLAKAEAMAFLQEQPFKDFVTSAFYDKFLQWKLFEMQPVSDKYFTEFRVLGKGGFGEVCAVQVKNTGKMYACKKLDKKRLKKKGGEKMALLEKEILEKVSSPFIVSLAYAFESKTHLCLVMSLMNGGDLKFHIYNVGTRGLDMSRVIFYSAQIACGMLHLHELGIVYRDMKPENVLLDDLGNCRLSDLGLAVEMKGGKPITQRAGTNGYMAPEILMEKVSYSYPVDWFAMGCSIYEMVAGRTPFKDYKEKVSKEDLKQRTLQDEVKFQHDNFTEEAKDICRLFLAKKPEQRLGSREKSDDPRKHHFFKTINFPRLEAGLIEPPFVPDPSVVYAKDIAEIDDFSEVRGVEFDDKDKQFFKNFATGAVPIAWQEEIIETGLFEELNDPNRPTGCEEGNSSKSGVCLLL
B6: EPHA5 (protein)
chain: SGSCCECGCGRASSLCAVAHPSLIWRCGYSKAKQDPEEEKMHFHNGHIKLPGVRTYIDPHTYEDPNQAVHEFAKEIEASCITIERVIGAGEFGEVCSGRLKLPGKRELPVAIKTLKVGYTEKQRRDFLGEASIMGQFDHPNIIHLEGVVTKSKPVMIVTEYMENGSLDTFLKKNDGQFTVIQLVGMLRGISAGMKYLSDMGYVHRDLAARNILINSNLVCKVSDFGLSRVLEDDPEAAYTTRGGKIPIRWTAPEAIAFRKFTSASDVWSYGIVMWEVVSYGERPYWEMTNQDVIKAVEEGYRLPSPMDCPAALYQLMLDCWQKERNSRPKFDEIVNMLDKLIRNPSSLKTLVNASCRVSNLLAEHSPLGSGAYRSVGEWLEAIKMGRYTEIFMENGYSSMDAVAQVTLEDLRRLGVTLVGHQKKIMNSLQEMKVQLVNGMVPL

Biological target: T1, Bovine, dephosphorylated, Myelin Basic Protein (MBP), P02687
T1 chain: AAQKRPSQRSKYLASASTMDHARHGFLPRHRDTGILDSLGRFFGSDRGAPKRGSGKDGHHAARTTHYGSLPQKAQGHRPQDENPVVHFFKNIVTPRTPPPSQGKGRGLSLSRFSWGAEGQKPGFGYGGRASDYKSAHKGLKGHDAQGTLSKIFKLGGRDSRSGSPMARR

Protein | MBP Kinase Activity
B1 | Weak
B2 | Negative
B3 | Weak
B4 | Strong
B5 | Negative
B6 | Negative
